This is an account of results in paper PMC3542637 (Biochemistry, 2012).

This data set deals with the molecule itself. Kind of data set: crystal structure.

B1: L-fucose dehydrogenase BmulJ_04919 from Burkholderia multivorans ATCC 17616 (enzyme, UniProt A0A0H3KNE7 1-258, looked up)
chain: MDLNLQDKVVIVTGGASGIGGAISMRLAEERAIPVVFARHAPDGAFLDALAQRQPRATYLPVELQDDAQCRDAVAQTIATFGRLDGLVNNAGVNDGIGLDAGRDAFVASLERNLIHYYAMAHYCVPHLKATRGAIVNISSKTAVTGQGNTSGYCASKGAQLALTREWAVALREHGVRVNAVIPAEVMTPLYRNWIATFEDPEAKLAEIAAKVPLGRRFTTPDEIADTAVFLLSPRASHTTGEWLFVDGGYTHLDRALV
By stoichiometry N is commonly meant a count of units in the complex or per binding partner. Regarding B1, the “stoichiometry N” value was 4.
